Where two headings read alike, the source gives them in different places. Starred links: 1 amine or outer side, 2 acyl side, 3 side chain; linkers in the order of their positions; H or OH if unused. Non-standard residues stand in square brackets, D forms with d. Residues, ends and D or L forms follow the SMILES beside them. *: point of attachment. Benzoyl(4-SiFtBu2) = CC(C)(C)[Si](F)(c1ccc(C(=O)*)cc1)C(C)(C)C; DOTA = O=C(O)CN1CCN(CC(=O)O)CCN(CC(=O)*)CCN(CC(=O)O)CC1; d(γGlu) = O=C(O)[C@@H](CCC(=O)[*:2])N[*:1]; 1Nal = N[C@@H](Cc1cccc2ccccc12)C(=O)O; Hyp = O=C(O)[C@@H]1C[C@@H](O)CN1; NMeNle = CCCC[C@H](NC)C(=O)O; PEG4 = NCCOCCOCCOCCOCCC(=O)O; dDap = NC[C@@H](N)C(=O)O

Data set [1] deals with T1, CCK-2R (Rattus norvegicus, UniProt P30553).
T1 construct: The CCK-2R expressing rat pancreatic tumor cells AR4-2J; host or cells: AR4-2J rat pancreatic tumor cells
T1 sequence (P30553 1-452): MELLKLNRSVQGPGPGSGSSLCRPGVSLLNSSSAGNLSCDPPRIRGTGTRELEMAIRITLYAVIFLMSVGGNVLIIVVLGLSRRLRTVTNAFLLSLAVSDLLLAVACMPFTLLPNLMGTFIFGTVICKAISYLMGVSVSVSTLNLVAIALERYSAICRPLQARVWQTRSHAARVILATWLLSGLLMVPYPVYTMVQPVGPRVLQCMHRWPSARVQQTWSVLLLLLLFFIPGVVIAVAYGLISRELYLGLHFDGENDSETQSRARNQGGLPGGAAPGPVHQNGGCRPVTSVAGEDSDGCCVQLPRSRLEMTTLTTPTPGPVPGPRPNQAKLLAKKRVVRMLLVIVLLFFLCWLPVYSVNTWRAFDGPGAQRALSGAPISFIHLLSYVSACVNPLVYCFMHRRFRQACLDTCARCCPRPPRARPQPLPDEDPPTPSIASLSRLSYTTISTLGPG
The data set can be described thus: Determination of IC50: CCK-2R affinity on AR4-2J cells, competition with [^177Lu]Lu-DOTA-PP-F11N. Type of data set: binding. The conditions noted are these: AR4-2J cells. The method, boiled down: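 Competitive displacement of 0.3 pmol/well [177Lu]Lu-DOTA-PP-F11N by compounds (10^-10 to 10^-4 M) on AR4-2J cells in BSA-supplemented medium, 3 h at 37 °C. Free label was collected from medium plus PBS rinse, and cell-bound label was recovered with 1 M NaOH, both measured by γ-counter. Each IC50 was determined twice, in triplicate.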

Data set [2] can be described thus: n-Octanol-PBS distribution coefficient (logD7.4). Type of data set: physicochemical. The note with it: pH = 7.4, ^177Lu-labeled. On the procedure: Approximately 1 MBq of the labeled tracer was dissolved in 1 mL of a 1/1 mixture (v/v) of phosphate buffered saline (PBS, pH = 7.4) and n-octanol in an Eppendorf tube (1.5 mL). After vigorous mixing of the suspension for 3 min at rt, the vial was centrifuged at 9,000 rpm for 5 min (Biofuge 15, Heraeus Sepatech, Osterode, Germany) and 200 µL aliquots of both layers were measured in a γ-counter. The experiment was repeated at least five times.

The nature of data set [3]: Biodistribution in AR4-2J tumor-bearing CB17-SCID mice. Type of data set: in vivo. The conditions noted are these: female, CB17-SCID, mouse, in vivo, iv, 100 pmol, total radioactivity, 100 pmol; for tissue uptake at 1 h: 1 h p.i.; for tissue uptake at 2 h: 2 h p.i.; for tissue uptake at 4 h: 4 h p.i. The protocol: All animal experiments were conducted in accordance with general animal welfare regulations in Germany (German animal protection act, in the edition of the announcement, dated May 18th, 2006, as amended by Article 280 of June 19th 2020, approval no. ROB-55.2-1-2532.Vet_02-18-109 by the General Administration of Upper Bavaria) and the institutional guidelines for the care and use of animals. CB17-SCID mice of both genders (Charles River Laboratories International Inc., Sulzfeld, Germany) were let to acclimate at the in-house animal facility at least for one week before inoculation was performed. To establish tumor xenografts, AR4-2J cells (5.0 × 10^6 cells per 200 µL) were suspended in a 1/1 mixture (v/v) of Dulbecco modified Eagle medium / Nutrition Mixture F-12 with Glutamax-I (1/1) and Cultrex® Basement Membrane Matrix Type 3 (Trevigen, Gaithersburg, MD, USA) and inoculated subcutaneously onto the right shoulder of 6-10 weeks old CB17-SCID mice (Charles River, Sulzfeld, Germany). Mice were used for experiments when tumors had grown to a volume of 150-300 mm^3 (1-2 weeks after inoculation). Exclusion criteria for animals from an experiment were either a weight loss higher than 20%, a tumor size above 1,500 mm^3, an ulceration of the tumor, a respiratory distress or a change of behavior. None of these criteria applied to any animal from the experiment. Neither randomization nor blinding was applied in the allocation of the experiments. Health status is SPF according to FELASA.
Approximately 1-5 MBq (100 pmol) of the radiolabeled minigastrin analogues were injected into the tail vein of AR4-2J tumor-bearing female CB17-SCID mice and sacrificed at 1 to 24 h post injection (n = 4-5). Selected organs were removed, weighted and measured in a γ-counter.

Data set [4] has as its system CCK-2R. The data set can be described thus: Competition studies in AR4-2J tumor-bearing CB17-SCID mice. Type of data set: in vivo. The conditions noted are these: co-administration of excess unlabeled competitor (40 nmol), 24 h p.i. The protocol:
For competition studies, the radiolabeled compound (approx. 1-5 MBq, 100 pmol) was co-injected with [^natLu]Lu-DOTA-MGS5 (40 nmol) into the tail vein of AR4-2J tumor-bearing CB17-SCID mice and sacrificed at 1 to 24 h post injection (n = 2). Selected organs were removed, weighted and measured in a γ-counter.

A short description of data set [5]: In vivo stability studies in murine serum and urine. Also on record: species or system CB17-SCID mice. The conditions noted are these: 30 min p.i. On the procedure: Stability studies were performed via injection of the ^177Lu-labeled peptide (approx. 35 MBq, 1 nmol) into the tail vein (n = 3) of anesthetized (2% isoflurane) CB17-SCID mice. At 30 min p.i. the mice were euthanized and a urine as well as a blood sample were taken. The urine sample was analyzed without further treatment. The blood sample was centrifuged at 5,000 rpm for 2 min. Afterwards, the serum was collected and ice-cold MeCN (1:1, v/v) as well as EtOH (1:2, v/v) were added. The sample was centrifuged at 5,000 rpm for 2 min once more and the supernatant was analyzed via RP-HPLC (10→30% in 5 min, 30→60% in 15 min, MeCN/H2O + 0.1% TFA).

Where [6] appears, read: read-out: activity levels in the blood.
Setting [7] is: read-out: activity levels in the tumor.

The IC50 is the concentration at which inhibition is half-maximal. On to `CCCC[C@@H](C(=O)N[C@@H](CC(=O)O)C(=O)N[C@@H](Cc1cccc2ccccc12)C(N)=O)N(C)C(=O)[C@H](Cc1c[nH]c2ccccc12)NC(=O)CCOCCOCCOCCOCCNC(=O)CC[C@@H](NC(=O)[C@@H]1C[C@@H](O)CN1C(=O)[C@@H]1C[C@@H](O)CN1C(=O)[C@@H]1C[C@@H](O)CN1C(=O)[C@@H]1C[C@@H](O)CN1C(=O)[C@@H]1C[C@@H](O)CN1C(=O)[C@@H]1C[C@@H](O)CN1C(=O)CC[C@@H](NC(=O)[C@@H](CNC(=O)c1ccc([Si](F)(C(C)(C)C)C(C)(C)C)cc1)NC(=O)CN1CCN(CC(=O)O)CCN(CC(=O)O)CCN(CC(=O)O)CC1)C(=O)O)C(=O)O` [DOTA-rhCCK-84, DOTA-dap(SiFA)-γ-glu-(Hyp)6-γ-glu-(PEG)3-Trp-(N-Me)Nle-Asp-1-Nal-NH2] ({DOTA}-[dDap](Benzoyl(4-SiFtBu2))[d(γGlu)][Hyp][Hyp][Hyp][Hyp][Hyp][Hyp][d(γGlu)][PEG4]W[NMeNle]D[1Nal]-NH2), for which the IC50 on CCK-2R [1] (read-out: IC50 [nM] (n = 3), ^natGa-labeled, ^natGa-labeled) turned out to be 27.7 ± 3.1 nM; at CCK-2R [1] (read-out: IC50 [nM] (n = 3), ^natLu-labeled, ^natLu-labeled), 7.87 ± 0.3 nM. The “logD7.4 (n ≥ 5), ^177Lu-labeled” value in data set [2] and in data set [2] (listed as [^nat/177Lu]Lu-DOTA-rhCCK-84) was -2.14 ± 0.06 in each case. Further, the tissue uptake at 1 h turned out to be 11.3 ± 1.3 %ID/g in data set [3] (setting [6]) and 36.3 ± 3.7 %ID/g in data set [3] (read-out: tumor uptake). Besides, the tissue uptake at 2 h is 3.71 ± 0.46 %ID/g in data set [3] (setting [6]) and 35 ± 2.9 %ID/g in data set [3] (setting [7]). Further, the tissue uptake at 4 h in data set [3] (setting [6]) was found to be 1.14 ± 0.18 %ID/g; in data set [3] (setting [7]) it was 34 ± 3.6 %ID/g. Moreover, in data set [3] (24 h p.i., read-out: activity levels in the kidneys), the tissue uptake at 24 h is less than 10 %ID/g. Further, in the data set on CCK-2R [4], the “activity levels in stomach and tumor in competition studies (CCK-2R specificity)” value was “significantly decreased activity levels in both stomach and tumor”. In addition, the “in vivo stability in the serum (intact compound)” value in data set [5] (murine serum) is 93.5 ± 2.1%. Besides, the “in vivo stability in the urine (intact compound)” value in data set [5] (murine urine) came out at 55.4 ± 9.0%.
